Data: PMC6461802, “Coupling of ssRNA cleavage with DNase activity in type III-A CRISPR-Csm revealed by cryo-EM and biochemistry” (Cell Research, 2019)
“And” between values parts separate entries of the source, which are not always exact repeats. Identical values can stand only once.

T1: Cas10 (Csm1);Csm2;Csm3;Csm4 (Streptococcus thermophilus …, UniProt A0A0A7HFE1;A0A0A7HIX1;A0A0A7HIF0;A0A0A7HGA1 1-758;1-121;1-220;1-299, |||)
T1 sequence 1: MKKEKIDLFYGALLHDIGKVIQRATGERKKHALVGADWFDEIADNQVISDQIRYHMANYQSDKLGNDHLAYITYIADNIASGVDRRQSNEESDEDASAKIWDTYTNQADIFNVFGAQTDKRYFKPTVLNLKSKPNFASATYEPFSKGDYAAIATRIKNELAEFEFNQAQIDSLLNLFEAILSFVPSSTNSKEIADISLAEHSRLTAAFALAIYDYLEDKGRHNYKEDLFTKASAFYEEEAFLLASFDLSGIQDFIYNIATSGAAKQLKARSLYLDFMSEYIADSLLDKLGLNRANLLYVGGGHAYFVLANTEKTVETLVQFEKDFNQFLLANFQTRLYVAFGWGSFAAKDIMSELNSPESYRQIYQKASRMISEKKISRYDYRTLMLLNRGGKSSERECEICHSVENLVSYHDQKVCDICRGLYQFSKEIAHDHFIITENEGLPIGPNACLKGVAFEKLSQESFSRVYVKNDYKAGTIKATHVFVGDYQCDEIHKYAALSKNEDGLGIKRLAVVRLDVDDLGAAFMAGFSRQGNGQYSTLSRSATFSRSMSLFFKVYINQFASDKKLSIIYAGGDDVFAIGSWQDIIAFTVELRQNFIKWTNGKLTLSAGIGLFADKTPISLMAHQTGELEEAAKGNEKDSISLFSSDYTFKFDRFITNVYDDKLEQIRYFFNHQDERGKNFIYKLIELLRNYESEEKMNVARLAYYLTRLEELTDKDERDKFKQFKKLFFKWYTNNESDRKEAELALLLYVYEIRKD
T1 sequence 2: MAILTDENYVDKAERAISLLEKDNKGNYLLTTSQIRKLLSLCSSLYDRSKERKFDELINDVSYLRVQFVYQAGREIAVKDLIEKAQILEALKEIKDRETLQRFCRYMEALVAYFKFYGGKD
T1 sequence 3: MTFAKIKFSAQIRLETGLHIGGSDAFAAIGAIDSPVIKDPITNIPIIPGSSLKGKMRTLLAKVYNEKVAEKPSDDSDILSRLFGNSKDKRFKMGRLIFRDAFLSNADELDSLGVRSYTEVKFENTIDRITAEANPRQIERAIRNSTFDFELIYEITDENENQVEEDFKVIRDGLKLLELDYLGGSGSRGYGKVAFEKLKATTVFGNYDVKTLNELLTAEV
T1 sequence 4: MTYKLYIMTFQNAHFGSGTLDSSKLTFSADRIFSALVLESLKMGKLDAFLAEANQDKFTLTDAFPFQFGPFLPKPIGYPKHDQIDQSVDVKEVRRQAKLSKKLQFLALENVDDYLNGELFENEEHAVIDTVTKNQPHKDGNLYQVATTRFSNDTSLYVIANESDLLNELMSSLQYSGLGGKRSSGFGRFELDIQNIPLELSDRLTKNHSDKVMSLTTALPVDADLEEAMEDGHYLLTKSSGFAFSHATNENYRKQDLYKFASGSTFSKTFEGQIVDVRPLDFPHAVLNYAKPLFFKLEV


Columns and labels:
[1] = biological target: T1, Cas10 (Csm1);Csm2;Csm3;Csm4; test: cryo-EM; small conformation, 3.3 A; endogenous ATP in Cas10; Cryo-EM: complex ~0.4 mg/mL, purified in 10 mM Tris-HCl pH 8.0, 150 mM NaCl, 3 mM DTT; grids blotted at 4 C; ternary reconstitution conditions not given; settings: protein: recombinant;recombinant;recombinant;recombinant; tags: ;His (N-terminal, pET-28a);;; copies: 1;3;5;1; single strand, 1 copy
[2] = biological target: the molecule itself; test: cryo-EM structure; apo state: StCsm complex with 40 nt crRNA, wild-type Csm3; big (3.4 Å) and small (3.3 Å) particle populations; ~0.4 mg/mL, buffer 10 mM Tris-HCl pH 8.0, 150 mM NaCl, 3 mM DTT
[3] = biological target: the molecule itself; test: cryo-EM structure; target ssRNA-bound state: StCsm complex with 40 nt crRNA and 49 nt target ssRNA, Csm3 D33A; big (3.4 Å) and small (3.5 Å) particle populations; ~0.4 mg/mL, buffer 10 mM Tris-HCl pH 8.0, 150 mM NaCl, 3 mM DTT

Row | Binder | stoichiometry N [2] | other results
1 | ACGGAAACUUUCGUAACUGUUUAAUUCUGUUCACUUAUUC (ssRNA) [40 nt crRNA] | – | binding result [1]: binds
2 | Csm3 of the Streptococcus thermophilus type III-A Csm complex (wild type, apo state) (natural protein, Streptococcus thermophilus DGCC8004, Csm3, Streptococcus thermophilus DGCC8004; also called Csm3a) MTFAKIKFSAQIRLETGLHIGGSDAFAAIGAIDSPVIKDPITNIPIIPGSSLKGKMRTLLAKVYNEKVAEKPSDDSDILSRLFGNSKDKRFKMGRLIFRDAFLSNADELDSLGVRSYTEVKFENTIDRITAEANPRQIERAIRNSTFDFELIYEITDENENQVEEDFKVIRDGLKLLELDYLGGSGSRGYGKVAFEKLKATTVFGNYDVKTLNELLTAEV | 7 and 5 | –
3 | Csm3 D33A of the Streptococcus thermophilus type III-A Csm complex (target ssRNA-bound state) (natural protein, Streptococcus thermophilus DGCC8004, Csm3, Streptococcus thermophilus DGCC8004, with D33A to eliminate ssRNA cleavage) MTFAKIKFSAQIRLETGLHIGGSDAFAAIGAIASPVIKDPITNIPIIPGSSLKGKMRTLLAKVYNEKVAEKPSDDSDILSRLFGNSKDKRFKMGRLIFRDAFLSNADELDSLGVRSYTEVKFENTIDRITAEANPRQIERAIRNSTFDFELIYEITDENENQVEEDFKVIRDGLKLLELDYLGGSGSRGYGKVAFEKLKATTVFGNYDVKTLNELLTAEV | – | stoichiometry N [3]: 7 and 5
4 | Csm2 of the Streptococcus thermophilus type III-A Csm complex (natural protein, Streptococcus thermophilus DGCC8004, Csm2, Streptococcus thermophilus DGCC8004; csm2 is present both on the untagged gene cassette and on the His-tag plasmid, so the 3 or 5 copies in the complex may be a mix of tagged and untagged chains; No tag removal is described; also called Csm2a; Csm2b) MAILTDENYVDKAERAISLLEKDNKGNYLLTTSQIRKLLSLCSSLYDRSKERKFDELINDVSYLRVQFVYQAGREIAVKDLIEKAQILEALKEIKDRETLQRFCRYMEALVAYFKFYGGKD | 5 and 3 | –
